Among the data in the supplement of paper PMC10567573 are protein stability index values, retold here.

The data set can be described thus: protein stability index of a GFP-peptide fusion (GPS, HEK-293T) (PSI 1-6); higher = more stable.
Setting [1] is: treatment: DMSO, c terminus: a fixed tail appended.
[2] abbreviates: treatment: MLN4924 1 uM, 8 h, c terminus: a fixed tail appended.

± gives the standard deviation.
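Also: 24-mer peptide tiles fused after GFP, lentivirally expressed, FACS-sorted into six equal bins by GFP/DsRed ratio, decoded by Illumina sequencing, PSI is the read-weighted mean bin number.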

Regarding RLKEMKLLRDQFVKALEDFEDLCD [FAM9B], the protein stability index amounted to 2.27 ± 0.13 under setting [1] and 2.52 ± 0.38 under setting [2]. On the same counts, the results for RLLSDATVEKDESHAGKVVLRSWY [FAM50A] are 3.02 ± 0.11 and 3.26 ± 0.12. With RLVDRDSVWGYDLGLRSLIPAVLT [MYORG], the protein stability index is, setting by setting: under setting [1], 2.25 ± 0.54; under setting [2], 2.28 ± 0.12. On to RLVSSPCCIVTSTYGWTANMERIM [HSP90AB1], for which the protein stability index came to 2.86 ± 0.68 under setting [1] and 2.35 ± 0.33 under setting [2]. On to RNLETQHKVLELTAENERLQKKVE [CEBPB], for which the protein stability index worked out at 5.12 ± 0.57 under setting [1] and 5.49 ± 0.049 under setting [2]. For the sequence RNLRTQQEIEDKMKGFSFKEDTLL [C8orf76], the protein stability index by setting is: under setting [1], 4.11 ± 0.12; under setting [2], 4.16 ± 0.19. In the case of RNSKASAYCLDQGAEDGDRAILYP [GALNT9], the protein stability index runs as follows: under setting [1], 4.32 ± 0.3; under setting [2], 4.4 ± 0.2. On the same counts, the results for RPRRYVQPPEMIGPMRPEQFSDEV [GAGE1] are 3.86 ± 0.26 and 4.41 ± 0.32.

In turn, RPTYFEMKNEKLLSKASEPKYQLF [RNF180] displayed a protein stability index under setting [1] of 2.54 ± 0.28 and a protein stability index under setting [2] of 2.78 ± 0.19. The like results for RQHIPDTYLCERCQPRNLDKERAV [KMT2E] were, in that order, 2.81 ± 0.47 and 3.35 ± 0.15. On the same counts, the results for RQNLSKSWLDVQVSNTYVKQKTSA [TPD52L3] are 3.83 ± 0.28 and 3.8 ± 0.25. The like results for RQQRLNQLEKPPEKEEDHAPEFIK [FAM107A] were, in that order, 5.33 ± 0.15 and 5.34 ± 0.35. RQVQSLMVHQRKLEAELLQIEERH [SMARCE1]: the protein stability index runs as follows: under setting [1], 4 ± 0.12; under setting [2], 4.23 ± 0.17. The like results for RQVVDILWSDPMAQEGCKANTIRG [PPEF2] were, in that order, 3.14 ± 0.31 and 3.55 ± 0.38. RQYRSIEVLIGAGYSTPADIWSTA [SRPK2]: the protein stability index worked out at 1.9 ± 0.37 under setting [1] and 2 ± 0.44 under setting [2]. For the sequence RREEEERRRIEEERLRLEQQKQQI [ACBD3], the protein stability index runs as follows: under setting [1], 5.35 ± 0.19; under setting [2], 5.05 ± 0.41. Turning to RRGELRHITKLKPWSLFDVLVEKY [SRPK2], the protein stability index under setting [1] stood at 2.4 ± 0.53 and the protein stability index under setting [2] was 2.12 ± 0.057.

For RRGQEPLSALLQFGVTYLEDYSAE [BCL2L13], the protein stability index is, setting by setting: under setting [1], 3.11 ± 0.3; under setting [2], 3.17 ± 0.43. For RRGVSDWDLRMKLHDRGAQVIHPQ [DNAAF3], the protein stability index runs as follows: under setting [1], 3.58 ± 0.092; under setting [2], 3.55 ± 0.35. On the same counts, the results for RRKEYDALKAAKREQEKKPKKEAN [LRRC59] are 5.25 ± 0.15 and 5.17 ± 0.22. On the same counts, the results for RRMTVVGRLEGLIQPDDLINQLTF [FAF2] are 2.36 ± 0.2 and 2.33 ± 0.49. Consider RRRQRSEKKKAHYRQSSFPHCSDL [KCNA4], for which the protein stability index runs as follows: under setting [1], 3.66 ± 0.16; under setting [2], 3.98 ± 0.19.

On to RRRRMETIVFLDKEVFASRISNPS [PCMTD2], for which the protein stability index is 2.57 ± 0.26 under setting [1] and 2.77 ± 0.38 under setting [2].

As to RRRSRKKPSGALGSESYKSSAGSA [EHMT1], the protein stability index by setting is: under setting [1], 4.86 ± 0.32; under setting [2], 5.3 ± 0.073.

Turning to RRRWCPAGIMLLALVCLLSCLLPS [SPACA3], the protein stability index is, setting by setting: under setting [1], 2.85 ± 0.55; under setting [2], 2.77 ± 0.3.

Turning to RSPIIDVKNDRDRVGHKSIPMRNL [SERPINB5], the protein stability index by setting is: under setting [1], 3.83 ± 0.13; under setting [2], 4 ± 0.36. The like results for RSRGKVLKTKDGKLPFCAMGVSSV [CPOX] were, in that order, 3.4 ± 0.2 and 3.15 ± 0.41.

RTLSAFLCLGGLACLIVMFLPEKK [SLC22A15] came in with a protein stability index under setting [1] of 3.25 ± 0.42 and a protein stability index under setting [2] of 2.64 ± 0.36. As for RVFKARIYTNRYETNEEDKTLQEI [FBXO39], the protein stability index turned out to be 2.98 ± 0.34 under setting [1] and 3.43 ± 0.38 under setting [2]. Consider RVPQTWSKRLYGVYDNEKKLQLQL [PLD5], for which the protein stability index worked out at 2.39 ± 0.32 under setting [1] and 2.31 ± 0.28 under setting [2]. Take RWDPVRRRFIQSCPIIRIPNRFLR [KLHDC10]: the protein stability index reads like this: under setting [1], 2.48 ± 0.42; under setting [2], 2.49 ± 0.2.

RYLFLDGDSHYEIEIVHISTVQIL [ZFYVE21]: the protein stability index runs as follows: under setting [1], 2.89 ± 0.26; under setting [2], 2.61 ± 0.4. Regarding SALTFLRVDQDKDKDCSLDCAGSP [SMOC2], the protein stability index reads like this: under setting [1], 4.92 ± 0.42; under setting [2], 5 ± 0.088. For the sequence SAYISNYAFANVFHGWKYMFGLVI [SLC2A12], the protein stability index came to 2.91 ± 0.38 under setting [1] and 2.9 ± 0.67 under setting [2]. As for SDGGQKNKPREHIIDCGDIVWSLA [WSB1], the protein stability index is, setting by setting: under setting [1], 3.07 ± 0.36; under setting [2], 3.23 ± 0.21. The like results for SDGSCKTAGEMVFVYENAKEGARN [BTBD10] were, in that order, 4.31 ± 0.18 and 4.48 ± 0.16.

For SDLPTPQAIEPQAIVQQVPAPSRM [SNX8], the protein stability index reads like this: under setting [1], 5.21 ± 0.11; under setting [2], 5.13 ± 0.19. As to SDRFGRKKVYLTGFALDILFAIAN [SLC22A15], the protein stability index runs as follows: under setting [1], 2.51 ± 0.64; under setting [2], 2.17 ± 0.41. The like results for SDSGLSLDSSHSPSSLSSSEGSSS [NFE2L1] were, in that order, 5.41 ± 0.23 and 5.34 ± 0.17.

As to SEFHPHHCNLFVYSSSKGSLRLCD [PPP2R2C], the protein stability index is, setting by setting: under setting [1], 2.23 ± 0.16; under setting [2], 2.27 ± 0.26. On the same counts, the results for SEVSCKKRDDYLEWPEYFMAVAFL [DCTD] are 2.15 ± 0.48 and 2.16 ± 0.26. On the same counts, the results for SGCDKEALLTGGGSENRNHRLLNM [RNF180] are 3.58 ± 0.28 and 3.86 ± 0.29. On the same counts, the results for SGEELHELFHTIDTHNTNNLDTEE [NECAB1] are 5.12 ± 0.6 and 5.08 ± 0.68. Regarding SGFLKEMACPYSVLISGDIKDRLK [FAM98B], the protein stability index was 2.38 ± 0.49 under setting [1] and 2.52 ± 0.18 under setting [2]. On the same counts, the results for SGRLSASWEPLSGPSTPSPVAAQF [FCHO1] are 3.14 ± 0.25 and 3.02 ± 0.23.

As for SHEANKLQDMLDGFIKKFVLCPEC [EIF5], the protein stability index by setting is: under setting [1], 2.49 ± 0.74; under setting [2], 2.65 ± 0.38. As to SHTLEERVVHWYFKLLDKNSSGDI [SMOC2], the protein stability index amounted to 2.44 ± 0.36 under setting [1] and 2.03 ± 0.21 under setting [2]. The like results for SIIHQMEKFSSSLHELSSRVEASH [FBF1] were, in that order, 2.72 ± 0.21 and 2.96 ± 0.2. For the sequence SITSKPATLTTTSATSKLIHPDED [ZNF207], the protein stability index is, setting by setting: under setting [1], 5.31 ± 0.26; under setting [2], 5.44 ± 0.28. Regarding SKKGLSFFAFEHSEEYQQAQHKFL [TCF25], the protein stability index under setting [1] is 2.85 ± 0.21 and the protein stability index under setting [2] is 3 ± 0.15. On the same counts, the results for SLKAKVSDNMSHLMVDFAQERQML [FSD1] are 3.33 ± 0.22 and 3.31 ± 0.31. For SLLQPVTPLGTSRWRKISAALPY [NCF4], the protein stability index by setting is: (treatment: DMSO, c terminus: native) 2.54 ± 0.27; (treatment: MLN4924 1 uM, 8 h, c terminus: native) 2.24 ± 0.28.

Consider SLPTTAPSNSSSLTLSGIKEDNSL [MYBL2], for which the protein stability index is, setting by setting: under setting [1], 4.91 ± 0.17; under setting [2], 5.2 ± 0.13.

Take SLRSYLKRRGPQRSVDVVVSSVFL [PHTF1]: the protein stability index was found to be 2.48 ± 0.32 under setting [1] and 2.09 ± 0.24 under setting [2]. Sequence SLTNDWEDHLAVKHFSVEGQLEFR [HSP90AB1] yielded a protein stability index under setting [1] of 3.49 ± 0.23. SMKHTATARFQRNHRLISEILSES [SMARCE1] yielded a protein stability index under setting [1] of 2.95 ± 0.12 and a protein stability index under setting [2] of 3.24 ± 0.5. In turn, SMPRINHGVLSAEGFLFVFGGQDE [GAN] yielded a protein stability index under setting [1] of 3.05 ± 0.41 and a protein stability index under setting [2] of 2.88 ± 0.72.

Take SMQCKVILLDGSEYTCDVEKRSRG [EPB41L3]: the protein stability index is, setting by setting: under setting [1], 3.04 ± 0.29; under setting [2], 3.61 ± 0.3. Take SNRWLMVKIFLILIVFFIIFVVFL [STX5]: the protein stability index is, setting by setting: under setting [1], 3.38 ± 0.24; under setting [2], 3.45 ± 0.32. Regarding SNTLGFGTEQAPYGMQTQNYPKGG [ETS2], the protein stability index by setting is: under setting [1], 4.29 ± 0.26; under setting [2], 4.2 ± 0.28. Turning to SPAQQVPKNPALEAFLAQFSQLED [TOR1AIP2], the protein stability index is, setting by setting: under setting [1], 4.26 ± 0.45; under setting [2], 4.38 ± 0.31. On to SPFTNLLNGSSQPTTRNYPELNNN [CDC14A], for which the protein stability index runs as follows: under setting [1], 4.04 ± 0.1; under setting [2], 4.26 ± 0.16.

As for SPPKSPRTTVHDKSAHQTHSSWTP [DNAJC4], the protein stability index is 4.36 ± 0.15 under setting [1] and 4.41 ± 0.2 under setting [2]. SPRGPAPGEEKFENLEGVPSVCSE [ZNF263]: the protein stability index under setting [1] is 5.41 ± 0.39 and the protein stability index under setting [2] came to 5.44 ± 0.29. Turning to SPTGLSPYLRFGCLSCRLFYFKLT [CRY1], the protein stability index worked out at 1.84 ± 0.27 under setting [1] and 2.14 ± 0.43 under setting [2]. Take SQEREGLLIVKLEEDCAWSQELPP [ZNF263]: the protein stability index by setting is: under setting [1], 3.72 ± 0.068; under setting [2], 3.89 ± 0.18. Consider SQESALGNTVPAVEPGTPPLDILA [DNAAF3], for which the protein stability index was determined as 5.17 ± 0.15 under setting [1] and 5.14 ± 0.12 under setting [2].

In the case of SQNSSLVQHERIHTGDKPYKCAEC [ZNF8], the protein stability index is, setting by setting: under setting [1], 4.58 ± 0.29; under setting [2], 4.82 ± 0.28. On the same counts, the results for SQVMGSGRGSLSSGGQTSWDSGCL [PLEKHN1] are 4.02 ± 0.14 and 3.98 ± 0.13.

Regarding SREFFNRRGELRHITKLKPWSLFD [SRPK2], the protein stability index runs as follows: under setting [1], 2.56 ± 0.07; under setting [2], 2.9 ± 0.32. In the case of SRETQRTPMNHQKAVNDETCKASH [FBXO34], the protein stability index stood at 5.06 ± 0.09 under setting [1] and 5.17 ± 0.19 under setting [2]. With SRHVTTRAALTYTSLEITILTSQP [M1AP], the protein stability index is, setting by setting: under setting [1], 2.63 ± 0.51; under setting [2], 2.6 ± 0.65.
